The source of these data is PMC9060813, “Protein with negative surface charge distribution, Bnr1, shows characteristics of a DNA‐mimic protein and may be involved in the adaptation of Burkholderia cenocepacia” (MicrobiologyOpen, 2022).

For orientation: stoichiometry N means the number of molecules, sites or subunits per partner or assembly.

The data set concerns the molecule itself. Briefly: SEC-MALS; 800 micrograms of purified rBCAS0292 on S75 16/60 in 50 mM Tris-HCl, 150 mM NaCl, 5% glycerol, pH 7.5; DAWN MALS and Optilab rEX; reducing and oxidizing conditions.

B1: recombinant BCAS0292 (Burkholderia negatively surface-charged regulatory protein 1), His-tagged (natural protein, Burkholderia cenocepacia, UniProt B4EQ58 1-179, looked up)
chain: MSGVRCDGLAIVDAVTLLSAYPDASRDADAPTVIDGRHIYVLRPGDAGQVGHNDNRLFAGLSPGDQLHLRETALALRAEVTVLFIRFALKDAGIVAPIEAEIRDAATPVPDGDDLLHPSCRPMKDHFWRSEVLAPGITTCTADFAVLDRDGAVSGYFRWETAIEIAGSRPDTKQPGVEP
notes: BCAS0292 protein (Bnr1), PixA family, Burkholderia cenocepacia; calculated molecular weight 19.2 kDa; no cleavage of the tag is told; also called rBCAS0292; rBnr1; source: E. coli BL21 Star (DE3), purified (lysis in 6 M guanidine-HCl, HisPur Ni-NTA, SEC)
With B1, the “stoichiometry N” value was found to be 2.
